Source: patent publication US20080005813A1, “Polypeptide Having Function of Cinnamyl Alcohol Dehydrogenase, Polynucleotide Encoding the Polypeptide and Those Uses” (GENOMINE, INC., priority 2005, published 2008)
Blank lines part the entries; values can stand above or below the molecule they belong to.

Assays:
[1] = target: AtCAD-H protein (cinnamyl alcohol dehydrogenase) (Arabidopsis thaliana, UniProt F4K152); assay: Enzyme activity of purified AtCAD-H protein, backward reaction (Lineweaver-Burk); assay type: biochemical; settings: substrate coniferyl alcohol, NADPH^+ in place of NADPH, Tris-HCl pH 9.3, 37° C.
Experimental: (§1) In order to identify whether the isolated protein has the cinnamyl alcohol dehydrogenase function related to lignin biosynthesis, the enzyme activity in forward reaction was measured using coniferaldehyde as a substrates. Also, the enzyme activity in backward reaction was measured using coniferyl alcohol as a substrates so as to identify whether the enzyme also involves in backward reaction or not.
(§2) The enzyme activities were measured at 405 nm using a microplate reader (Bio-rad Backman Microplate Reader) adjusted at 37° C. according to the method of Mitchell et al. (Mitchell et al. Planta, 208: 31-47, 1998). In […] of the reaction solution for the measurement of the enzyme activity in forward reaction, 100 mM Tris-buffer (Tris-HCl pH 9.3), […], and 2-3 μg of the protein purified in Example 2-2 were contained. The conditions of the reaction solution for the measurement of the enzyme activity in backward reaction is the same as that of the reaction solution of forward reaction, except that 100 mM NADPH^+ was contained in place of 100 mM NADPH. […]
(§3) Meanwhile, the enzyme activity of the purified protein was suitable for Michaelis-Menten kinetics for 100 mM coniferyl alcohol, that is, the substrate of backward reaction. The reaction velocities were measured according to variation of substrate concentration, and represented in a Lineweaver-Burk's plot (see FIG. 2b). […]

[2] = substrate: COc1cc(/C=C/C=O)ccc1O; assay: Enzyme activity of purified AtCAD-H protein, forward reaction (Lineweaver-Burk); assay type: biochemical, Arabidopsis thaliana; settings: other: forward reaction, substrate coniferaldehyde, NADPH, Tris-HCl pH 9.3, 37° C., 405 nm
Experimental: as §1, §2
The enzyme activity of the purified protein was suitable for Michaelis-Menten kinetics for 100 mM coniferaldehyde, that is, the substrate of forward reaction. The reaction velocities were measured according to variation of substrate concentration, and represented in a Lineweaver-Burk's plot (see FIG. 2a).

[3] = substrate: COc1cc(/C=C/CO)ccc1O; assay: Enzyme activity of purified AtCAD-H protein, backward reaction (Lineweaver-Burk); assay type: biochemical, Arabidopsis thaliana; settings: other: backward reaction, substrate coniferyl alcohol, NADPH^+ in place of NADPH, Tris-HCl pH 9.3, 37° C.
Experimental: as §1, §2, §3

- Vmax [1]: 0.102
Molecule: COc1cc(/C=C/CO)ccc1O [coniferyl alcohol]

B1: AtCAD-H protein (cinnamyl alcohol dehydrogenase) (Arabidopsis thaliana) (protein)
chain: MANSGEGKVVCVTGASGYIASWLVKFLLSRGYTVKASVRDPSDPKKTQHLVSLEGAKERLHLFKADLLEQGSFDSAIDGCHGVFHTASPFFNDAKDPQAELIDPAVKGTLNVLNSCAKASSVKRVVVTSSMAAVGYNGKPRTPDVTVDETWFSDPELCEASKMWYVLSKTLAEDAAWKLAKEKGLDIVTINPAMVIGPLLQPTLNTSAAAILNLINGAKTFPNLSFGWVNVKDVANAHIQAFEVPSANGRYCLVERVVHHSEIVNILRELYPNLPLPERCVDENPYVPTYQVSKDKTRSLGIDYIPLKVSIKETVESLKEKGFAQF
- Km [2]: 19.8 µM
- Km [3]: 374 µM
